Ends that are not written are not given here. * marks the point of attachment. Biotin = O=C1N[C@H]2[C@H](CS[C@H]2CCCCC(=O)*)N1

The experiment deals with GST–BRCA1–BRCT (UniProt P38398 1582-1863). The experiment in a line: pull-down.
GST–BRCA1–BRCT, sequence (P38398 1582-1863): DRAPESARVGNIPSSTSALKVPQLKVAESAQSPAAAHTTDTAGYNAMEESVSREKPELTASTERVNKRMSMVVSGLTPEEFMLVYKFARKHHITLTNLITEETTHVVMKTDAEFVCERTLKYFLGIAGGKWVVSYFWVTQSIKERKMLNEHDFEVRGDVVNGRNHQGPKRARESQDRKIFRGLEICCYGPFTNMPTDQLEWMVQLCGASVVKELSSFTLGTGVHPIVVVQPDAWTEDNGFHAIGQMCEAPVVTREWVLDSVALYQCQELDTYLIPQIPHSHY

With Biotin-KHDAIMDGASPDYVLV [biotinylated CSB peptide without S1276 phosphorylation], the binding result was “binds”.

Values taken from PMC6847465 (Nucleic Acids Research, 2019).
